# In PMC2923608, “Structural Insights into the Quinolone Resistance Mechanism of Mycobacterium tuberculosis DNA Gyrase” (PLoS ONE, 2010):
# B1: breakage-reunion domain of DNA gyrase subunit A from M. tuberculosis (GA57BK) (domain or fragment)
# chain: MTDTTLPPDDSLDRIEPVDIEQEMQRSYIDYAMSVIVGRALPEVRDGLKPVHRRVLYAMFDSGFRPDRSHAKSARSVAETMGNYHPHGDASIYDSLVRMAQPWSLRYPLVDGQGNFGSPGNDPPAAMRYTEARLTPLAMEMLREIDEETVDFIPNYDGRVQEPTVLPSRFPNLLANGSGGIAVGMATNIPPHNLRELADAVFWALENHDADEEETLAAVMGRVKGPDFPTAGLIVGSQGTADAYKTGRGSIRMRGVVEVEEDSRGRTSLVITELPYQVNHDNFITSIAEQVRDGKLAGISNIEDQSSDRVGLRIVIEIKRDAVAKVVINNLYKHTQLQTSFGANMLAIVDGVPRTLRLDQLIRYYVDHQLDVIVRRTTYRLRKANERAHILRGLVKALDALDEVIALIRASETVDIARAGLIELLDIDEIQAQAILDMQLRRLAALERQRIIDDLAKIEAEIADLEDILAKPERQRGIVRDELAEIVDRHGDDRRTRIIAAD
# notes: DNA gyrase subunit A (GyrA), Mycobacterium tuberculosis, breakage-reunion domain, residues 1-502, 57 kDa; also called entire N-terminal GyrA domain
# B2: Toprim domain of DNA gyrase subunit B from Mycobacterium tuberculosis (TopBK) (domain or fragment)
# chain: TDPRKSELYVVEGDSAGGSAKSGRDSMFQAILPLRGKIINVEKARIDRVLKNTEVQAIITALGTGIHDEFDIGKLRYHKIVLMADADVDGQHISTLLLTLLFRFMRPLIENGHVFLAQPPLYKLKWQRSDPEFAYSDRERDGLLEAGLKAGKKINKEDGIQRYKGLGEMDAKELWETTMDPSVRVLRQVTLDDAAAADELFSILMGEDVDARRSFITRNAKDVRFLDV
# notes: DNA gyrase subunit B (GyrB), Mycobacterium tuberculosis, Toprim domain; the methods give residues 448-675, the results give 448-654 (the crystal model runs from T448 to E654); also called C-terminal GyrB domain
# Key:
# [1] = molecular target: the molecule itself; assay: AUC; sedimentation velocity, 20°C, 42000 rpm, 20 mM Tris pH 8; GA57BK at 1 mg/ml (17.5 µM)
# [2] = molecular target: the molecule itself; assay: AUC; sedimentation velocity, 20°C, 42000 rpm, 20 mM Tris pH 8; TopBK at 0.5, 1 and 4 mg/ml (18, 37 and 148 µM); the result is told for the concentration corresponding to the crystallization conditions; monomer and dimer
Protein,stoichiometry N [1],stoichiometry N [2]
B1,2,–
B2,–,2
